Each block holds one binder with its values, some of them ahead of it. Numbered stars: 1 amine (or outer) side, 2 acyl side, 3 side chain; on linkers, the order of the positions; unused ones are H or OH. Bridge positions count the residues as written; N and C are the ends. Side chains are listed from the residue outwards. Ends that are not written are not given here. * marks the point of attachment. C20 diacid = O=C(O)CCCCCCCCCCCCCCCCCCC(=O)*; γGlu = O=C(O)[C@H](CCC(=O)[*:2])N[*:1]
Key:
[1] = target: T1, human calcitonin receptor (human, UniProt P30988 25-474); assay: IC50 at hCTR divided by IC50 at hAmylin-R (reference)
T1 construct: whole, on cells; Membranes of a BHK tk'ts 13 cell line stably transfected with the human calcitonin receptor; also called hCTR; hCT
T1 sequence (looked up): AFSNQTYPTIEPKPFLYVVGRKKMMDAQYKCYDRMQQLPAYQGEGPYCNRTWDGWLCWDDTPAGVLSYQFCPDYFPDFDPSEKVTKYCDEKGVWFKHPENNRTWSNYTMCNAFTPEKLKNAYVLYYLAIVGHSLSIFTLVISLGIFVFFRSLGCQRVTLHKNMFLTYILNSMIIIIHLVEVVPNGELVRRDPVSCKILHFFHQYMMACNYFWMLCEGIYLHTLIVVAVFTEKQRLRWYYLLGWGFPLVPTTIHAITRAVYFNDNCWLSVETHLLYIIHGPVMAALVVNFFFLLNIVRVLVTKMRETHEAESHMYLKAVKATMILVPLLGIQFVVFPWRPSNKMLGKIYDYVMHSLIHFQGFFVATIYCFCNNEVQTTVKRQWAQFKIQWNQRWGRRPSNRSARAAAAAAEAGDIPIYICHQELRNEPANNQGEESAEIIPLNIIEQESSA
Method in brief: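 Competition binding by SPA uses membrane preparations (35 ng/μL final) in pH 7.4 Hepes buffer with 1 mM CaCl2 and 5 mM MgCl₂. Incubation lasts 120 min at 25° C, and IC₅₀ comes from one-site fitting.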

[2] = target: T2, rat calcitonin receptor (rat, UniProt P32214 25-516); assay: IC50 at rCTR divided by IC50 at rAmylin-R (reference)
T2 construct: whole, on cells; Membranes of BHK tk'ts 13 cells transiently transfected with the rat calcitonin receptor; also called rCTR; rat calcitonin (a) receptor
T2 sequence (looked up): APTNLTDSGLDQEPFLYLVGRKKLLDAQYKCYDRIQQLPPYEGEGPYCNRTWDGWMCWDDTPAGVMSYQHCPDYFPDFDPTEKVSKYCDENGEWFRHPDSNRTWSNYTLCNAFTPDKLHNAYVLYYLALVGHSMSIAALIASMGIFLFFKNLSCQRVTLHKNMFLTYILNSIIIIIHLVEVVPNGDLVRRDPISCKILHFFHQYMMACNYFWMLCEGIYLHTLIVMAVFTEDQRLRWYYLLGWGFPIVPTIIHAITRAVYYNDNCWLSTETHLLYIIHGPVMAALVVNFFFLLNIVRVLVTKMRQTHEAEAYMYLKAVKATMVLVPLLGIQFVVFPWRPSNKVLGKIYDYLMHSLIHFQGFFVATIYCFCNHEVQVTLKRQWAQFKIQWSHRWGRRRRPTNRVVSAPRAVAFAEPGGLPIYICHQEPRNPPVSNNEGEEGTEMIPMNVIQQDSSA

[3] = target: T2, rat calcitonin receptor; assay: SPA competition vs 125I-calcitonin, membranes with rat CTR (Assay VIII)
[4] = target: T3, rat amylin receptor (rat calcitonin receptor + rat RAMP 3) (rat, UniProt P32214 25-516; Q9JJ73 23-147); assay: SPA competition vs 125I-rat amylin, membranes with rat CTR + rat RAMP3 (Assay VI)
T3 construct: whole, on cells; Membranes of BHK tk'ts 13 cells transiently transfected with the rat calcitonin receptor and rat RAMP 3; also called rAmylin-R; rat amylin 3(a) receptor
T3 sequence (looked up) 1: T2 sequence (looked up)
T3 sequence (looked up) 2: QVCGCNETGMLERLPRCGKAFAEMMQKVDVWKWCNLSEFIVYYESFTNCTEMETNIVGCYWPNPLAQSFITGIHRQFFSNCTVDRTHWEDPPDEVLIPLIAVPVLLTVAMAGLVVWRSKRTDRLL

Ratio hCT/hAmylin binding [1]: 90 | Ratio rCT/rAmylin binding [2]: 116 | IC50 [3]: 350 nM | IC50 [4]: 3.01 nM
B1: N^α1-[2-[2-[2-[[2-[2-[2-[[(4S)-4-carboxy-4-(19-carboxynonadecanoylamino)butanoyl]amino]ethoxy]ethoxy]acetyl]amino]ethoxy]ethoxy]acetyl]-[Arg17,Pro21,Pro27]-h-am … (peptide)
peptide: KCNTATCATQRLANFLRHSSPNFGAIPSSTNVGSNTY
modifications: C20 diacid-gGlu-2xOEG on the alpha amino group of the N-terminal residue (Lys 1); disulfide bridge Cys2-Cys7; C-terminal amide
notes: modifications are with respect to human amylin; also called compound 24

Ratio hCT/hAmylin binding [1]: 50.3 | Ratio rCT/rAmylin binding [2]: 65.1 | IC50 [3]: 61.7 nM | IC50 [4]: 0.948 nM
B2: N^ε1-[(4S)-4-carboxy-4-(19-carboxynonadecanoylamino)butanoyl]-[Arg17,Pro21,Pro27,Lys35]-h-amylin (peptide)
peptide: K([γGlu-C20 diacid])CNTATCATQRLANFLRHSSPNFGAIPSSTNVGSKTY-NH2
modifications: disulfide 2-7; N-terminus assumed
SMILES: CC[C@H](C)[C@H](NC(=O)[C@H](C)NC(=O)CNC(=O)[C@H](Cc1ccccc1)NC(=O)[C@H](CC(N)=O)NC(=O)[C@@H]1CCCN1C(=O)[C@H](CO)NC(=O)[C@H](CO)NC(=O)[C@H](Cc1c[nH]cn1)NC(=O)[C@H](CCCNC(=N)N)NC(=O)[C@H](CC(C)C)NC(=O)[C@H](Cc1ccccc1)NC(=O)[C@H](CC(N)=O)NC(=O)[C@H](C)NC(=O)[C@H](CC(C)C)NC(=O)[C@H](CCCNC(=N)N)NC(=O)[C@H](CCC(N)=O)NC(=O)[C@@H](NC(=O)[C@H](C)NC(=O)[C@@H]1CSSC[C@H](NC(=O)[C@@H](N)CCCCNC(=O)CC[C@H](NC(=O)CCCCCCCCCCCCCCCCCCC(=O)O)C(=O)O)C(=O)N[C@@H](CC(N)=O)C(=O)N[C@@H]([C@@H](C)O)C(=O)N[C@@H](C)C(=O)N[C@@H]([C@@H](C)O)C(=O)N1)[C@@H](C)O)C(=O)N1CCC[C@H]1C(=O)N[C@@H](CO)C(=O)N[C@@H](CO)C(=O)N[C@H](C(=O)N[C@@H](CC(N)=O)C(=O)N[C@H](C(=O)NCC(=O)N[C@@H](CO)C(=O)N[C@@H](CCCCN)C(=O)N[C@H](C(=O)N[C@@H](Cc1ccc(O)cc1)C(N)=O)[C@@H](C)O)C(C)C)[C@@H](C)O
notes: modifications are with respect to human amylin; also called compound 35

Ratio hCT/hAmylin binding [1]: 15.7 | Ratio rCT/rAmylin binding [2]: 32.4 | IC50 [3]: 60.1 nM | IC50 [4]: 1.86 nM
B3: N{Alpha-1}-[(4S)-4-carboxy-4-(19-carboxynonadecanoylamino)butanoyl]-[Glu14,Arg17,Pro21,Pro27,Lys34]-h-amylin (peptide)
peptide: {C20 diacid-γGlu}-KCNTATCATQRLAEFLRHSSPNFGAIPSSTNVGKNTY-NH2
modifications: disulfide 2-7
SMILES: CC[C@H](C)[C@H](NC(=O)[C@H](C)NC(=O)CNC(=O)[C@H](Cc1ccccc1)NC(=O)[C@H](CC(N)=O)NC(=O)[C@@H]1CCCN1C(=O)[C@H](CO)NC(=O)[C@H](CO)NC(=O)[C@H](Cc1c[nH]cn1)NC(=O)[C@H](CCCNC(=N)N)NC(=O)[C@H](CC(C)C)NC(=O)[C@H](Cc1ccccc1)NC(=O)[C@H](CCC(=O)O)NC(=O)[C@H](C)NC(=O)[C@H](CC(C)C)NC(=O)[C@H](CCCNC(=N)N)NC(=O)[C@H](CCC(N)=O)NC(=O)[C@@H](NC(=O)[C@H](C)NC(=O)[C@@H]1CSSC[C@H](NC(=O)[C@H](CCCCN)NC(=O)CC[C@H](NC(=O)CCCCCCCCCCCCCCCCCCC(=O)O)C(=O)O)C(=O)N[C@@H](CC(N)=O)C(=O)N[C@@H]([C@@H](C)O)C(=O)N[C@@H](C)C(=O)N[C@@H]([C@@H](C)O)C(=O)N1)[C@@H](C)O)C(=O)N1CCC[C@H]1C(=O)N[C@@H](CO)C(=O)N[C@@H](CO)C(=O)N[C@H](C(=O)N[C@@H](CC(N)=O)C(=O)N[C@H](C(=O)NCC(=O)N[C@@H](CCCCN)C(=O)N[C@@H](CC(N)=O)C(=O)N[C@H](C(=O)N[C@@H](Cc1ccc(O)cc1)C(N)=O)[C@@H](C)O)C(C)C)[C@@H](C)O
notes: modifications are with respect to human amylin; also called compound 36

Ratio hCT/hAmylin binding [1]: 47.5 | Ratio rCT/rAmylin binding [2]: 366 | IC50 [3]: 108 nM | IC50 [4]: 0.295 nM
B4: N^ε1-[(4S)-4-carboxy-4-[[(4S)-4-carboxy-4-(19-carboxynonadecanoylamino)butanoyl]amino]butanoyl]-[Asp14,Arg17,Pro21,Pro27,Asp35]-h-amylin (peptide)
peptide: K([γGlu-γGlu-C20 diacid])CNTATCATQRLADFLRHSSPNFGAIPSSTNVGSDTY-NH2
modifications: disulfide 2-7; N-terminus assumed
SMILES: CC[C@H](C)[C@H](NC(=O)[C@H](C)NC(=O)CNC(=O)[C@H](Cc1ccccc1)NC(=O)[C@H](CC(N)=O)NC(=O)[C@@H]1CCCN1C(=O)[C@H](CO)NC(=O)[C@H](CO)NC(=O)[C@H](Cc1c[nH]cn1)NC(=O)[C@H](CCCNC(=N)N)NC(=O)[C@H](CC(C)C)NC(=O)[C@H](Cc1ccccc1)NC(=O)[C@H](CC(=O)O)NC(=O)[C@H](C)NC(=O)[C@H](CC(C)C)NC(=O)[C@H](CCCNC(=N)N)NC(=O)[C@H](CCC(N)=O)NC(=O)[C@@H](NC(=O)[C@H](C)NC(=O)[C@@H]1CSSC[C@H](NC(=O)[C@@H](N)CCCCNC(=O)CC[C@H](NC(=O)CC[C@H](NC(=O)CCCCCCCCCCCCCCCCCCC(=O)O)C(=O)O)C(=O)O)C(=O)N[C@@H](CC(N)=O)C(=O)N[C@@H]([C@@H](C)O)C(=O)N[C@@H](C)C(=O)N[C@@H]([C@@H](C)O)C(=O)N1)[C@@H](C)O)C(=O)N1CCC[C@H]1C(=O)N[C@@H](CO)C(=O)N[C@@H](CO)C(=O)N[C@H](C(=O)N[C@@H](CC(N)=O)C(=O)N[C@H](C(=O)NCC(=O)N[C@@H](CO)C(=O)N[C@@H](CC(=O)O)C(=O)N[C@H](C(=O)N[C@@H](Cc1ccc(O)cc1)C(N)=O)[C@@H](C)O)C(C)C)[C@@H](C)O
notes: modifications are with respect to human amylin; also called compound 2

Ratio hCT/hAmylin binding [1]: 17.3 | Ratio rCT/rAmylin binding [2]: 16.7 | IC50 [3]: 16.7 nM | IC50 [4]: 1 nM
B5: N^ε1-[(4S)-4-carboxy-4-[[(4S)-4-carboxy-4-(19-carboxynonadecanoylamino)butanoyl]amino]butanoyl]-[Asp14,Arg17,Pro22,Pro26,Asp35]-h-amylin (peptide)
peptide: K([γGlu-γGlu-C20 diacid])CNTATCATQRLADFLRHSSNPFGAPLSSTNVGSDTY-NH2
modifications: disulfide 2-7; N-terminus assumed
SMILES: CC(C)C[C@H](NC(=O)[C@H](CCCNC(=N)N)NC(=O)[C@H](CCC(N)=O)NC(=O)[C@@H](NC(=O)[C@H](C)NC(=O)[C@@H]1CSSC[C@H](NC(=O)[C@@H](N)CCCCNC(=O)CC[C@H](NC(=O)CC[C@H](NC(=O)CCCCCCCCCCCCCCCCCCC(=O)O)C(=O)O)C(=O)O)C(=O)N[C@@H](CC(N)=O)C(=O)N[C@@H]([C@@H](C)O)C(=O)N[C@@H](C)C(=O)N[C@@H]([C@@H](C)O)C(=O)N1)[C@@H](C)O)C(=O)N[C@@H](C)C(=O)N[C@@H](CC(=O)O)C(=O)N[C@@H](Cc1ccccc1)C(=O)N[C@@H](CC(C)C)C(=O)N[C@@H](CCCNC(=N)N)C(=O)N[C@@H](Cc1c[nH]cn1)C(=O)N[C@@H](CO)C(=O)N[C@@H](CO)C(=O)N[C@@H](CC(N)=O)C(=O)N1CCC[C@H]1C(=O)N[C@@H](Cc1ccccc1)C(=O)NCC(=O)N[C@@H](C)C(=O)N1CCC[C@H]1C(=O)N[C@@H](CC(C)C)C(=O)N[C@@H](CO)C(=O)N[C@@H](CO)C(=O)N[C@H](C(=O)N[C@@H](CC(N)=O)C(=O)N[C@H](C(=O)NCC(=O)N[C@@H](CO)C(=O)N[C@@H](CC(=O)O)C(=O)N[C@H](C(=O)N[C@@H](Cc1ccc(O)cc1)C(N)=O)[C@@H](C)O)C(C)C)[C@@H](C)O
notes: modifications are with respect to human amylin; also called compound 3

Ratio hCT/hAmylin binding [1]: 27.6 | Ratio rCT/rAmylin binding [2]: 104 | IC50 [3]: 135 nM | IC50 [4]: 1.3 nM
B6: N^ε1-[(4S)-4-carboxy-4-[[(4S)-4-carboxy-4-(19-carboxynonadecanoylamino)butanoyl]amino]butanoyl]-[Asp14,Arg17,Pro21,Pro26,Asp35]-h-amylin (peptide)
peptide: K([γGlu-γGlu-C20 diacid])CNTATCATQRLADFLRHSSPNFGAPLSSTNVGSDTY-NH2
modifications: disulfide 2-7; N-terminus assumed
SMILES: CC(C)C[C@H](NC(=O)[C@H](CCCNC(=N)N)NC(=O)[C@H](CCC(N)=O)NC(=O)[C@@H](NC(=O)[C@H](C)NC(=O)[C@@H]1CSSC[C@H](NC(=O)[C@@H](N)CCCCNC(=O)CC[C@H](NC(=O)CC[C@H](NC(=O)CCCCCCCCCCCCCCCCCCC(=O)O)C(=O)O)C(=O)O)C(=O)N[C@@H](CC(N)=O)C(=O)N[C@@H]([C@@H](C)O)C(=O)N[C@@H](C)C(=O)N[C@@H]([C@@H](C)O)C(=O)N1)[C@@H](C)O)C(=O)N[C@@H](C)C(=O)N[C@@H](CC(=O)O)C(=O)N[C@@H](Cc1ccccc1)C(=O)N[C@@H](CC(C)C)C(=O)N[C@@H](CCCNC(=N)N)C(=O)N[C@@H](Cc1c[nH]cn1)C(=O)N[C@@H](CO)C(=O)N[C@@H](CO)C(=O)N1CCC[C@H]1C(=O)N[C@@H](CC(N)=O)C(=O)N[C@@H](Cc1ccccc1)C(=O)NCC(=O)N[C@@H](C)C(=O)N1CCC[C@H]1C(=O)N[C@@H](CC(C)C)C(=O)N[C@@H](CO)C(=O)N[C@@H](CO)C(=O)N[C@H](C(=O)N[C@@H](CC(N)=O)C(=O)N[C@H](C(=O)NCC(=O)N[C@@H](CO)C(=O)N[C@@H](CC(=O)O)C(=O)N[C@H](C(=O)N[C@@H](Cc1ccc(O)cc1)C(N)=O)[C@@H](C)O)C(C)C)[C@@H](C)O
notes: modifications are with respect to human amylin; also called compound 1
